Assay results taken from the RNAGym collection of RNA variant scans (doi:10.7554/elife.90254).

B1: OR4K15 (parent)
chain: GUUAACGGUCAUAGGCCAUGGAAACUAGGAGCACCAUUUCGCUGCCAGUGAAGAAAUGAACAAAGAAAAUCUGGGCCAGGCAGGCAUCAAAAGAAAUAGUCUUGCGCUCAACCAGAAAGUCUGUAAUCAUUUUAAGGGUA

Variants of: B1
Assay: self-cleavage, relative activity (ratio to wild type); higher = more cleavage; in vitro, sequencing; the parent is a self-cleaving ribozyme

| Variant | self-cleavage |
| --- | --- |
| GUUAACGGUCAUAGGCCAUGGAAUCUAGGAGCACCAUUUCGCUGCCAGUGAAGAAAUGAACAAAGAAAAUCUGGGCCAGGCAGGCAUCAAAAGAGAUAGUCUUGCGCUCAACCAGAAAGUCUGUAAUCAUUUUAAGGGUA [A24U A95G] | 1.95 |
| GUUAACGGUCAUAGGCCAUGGAAAAUAGGAGCACCAUUUCGCUGCCAGUGAAGAAAUGAACAAAGAAAAUCUGGGCCAGGCAGGCAUCAAAAGAGAUAGUCUUGCGCUCAACCAGAAAGUCUGUAAUCAUUUUAAGGGUA [C25A A95G] | 0.89 |
| GUUAACGGUCAUAGGCCAUGGAAUCUAGGAGCACCAUUUCGCUGCCAGUGAAGAAAUGAACAAAGAAAAUCUGGGCCAGGCAGGCAUCAAAAGAAAUAGUCUUGUGCUCAACCAGAAAGUCUGUAAUCAUUUUAAGGGUA [A24U C105U] | 0.17 |
| GUUAACGGUCAUAGGCCAUGGAAUCUAGGAGCACCAUUUCGCUGCCAGUGAAGAAAUGGACAAAGAAAAUCUGGGCCAGGCAGGCAUCAAAAGAAAUAGUCUUGCGCUCAACCAGAAAGUCUGUAAUCAUUUUAAGGGUA [A24U A59G] | 1.28 |
| GUUAACGGUCAUAGGCCAUGGAAUCUAGGAGCACCAUUUCGCUGCCAGUGAGGAAAUGAACAAAGAAAAUCUGGGCCAGGCAGGCAUCAAAAGAAAUAGUCUUGCGCUCAACCAGAAAGUCUGUAAUCAUUUUAAGGGUA [A24U A52G] | 1.32 |
| GUUAACGGUCAUAGGCCAUGGAAUCUAGGAGCACCAUUUCGCUGCCAGUGAAGAAAUGAACAAAGAAAAUCUGGGCCAGGCAGGCAUCAAAAGAAAUAGUCUUGCGCUCAGCCAGAAAGUCUGUAAUCAUUUUAAGGGUA [A24U A111G] | 0.03 |
| GUUAACGGUCAUAGGCCAUGGAAGCUAGGAGCACCAUUUCGCUGCCAGUGAAGAAAUGAACAAAGAAAAUCUGGGCCAGGCAGGCAUCAAAAGAAAUAGUCUUGCGCUCAACCAGAAAGUCUGUAAUCACUUUAAGGGUA [A24G U130C] | 1.38 |
| GUUAACGGUCAUAGGCCAUGGAAGCUAGGAGCACCAUUUCGCUGCCAGUGAAGAAAUGAACAAAGAAAAUCUGGGCCAGGCAGGCAUCAAAAGAAAUAGUCUUGCGCUCAACCAGAAAGUCUGUAAUCAGUUUAAGGGUA [A24G U130G] | 0.56 |
| GUUAACGGUCAUAGGCCAUGGAAUCUAGGAGCACCAUUUCGCUGCCAGUGAAGAAAUGAACAAAGAUAAUCUGGGCCAGGCAGGCAUCAAAAGAAAUAGUCUUGCGCUCAACCAGAAAGUCUGUAAUCAUUUUAAGGGUA [A24U A67U] | 1.89 |
| GUUAACGGUCAUAGGCCAUGGAAUCUAGGAGCACCAUUUCGCUGCCAGUGAAGAAAUGAACAAAGAAAAUCUGGGCCAGGCAGGCAUCGAAAGAAAUAGUCUUGCGCUCAACCAGAAAGUCUGUAAUCAUUUUAAGGGUA [A24U A89G] | 0.56 |
| GUUAACGGUCAUAGGCCAUGGAAUCUAGGAGCACCAUUUCGCUGCCAGUGAAGAUAUGAACAAAGAAAAUCUGGGCCAGGCAGGCAUCAAAAGAAAUAGUCUUGCGCUCAACCAGAAAGUCUGUAAUCAUUUUAAGGGUA [A24U A55U] | 0.93 |
| GUUAACGGUCAUAGGCCAUGGAAAAUAGGAGCACCAUUUCGCUGCCAGUGAAGAAAUGAACAAAGAAAAUCUGGGCCAGGCAGGCAUCAAAAGAAAUAGUCUUGCGCUCAACCAGAAAGUCUGUAAUCAUUUUAGGGGUA [C25A A135G] | 1.61 |
| GUUAACGGUCAUAGGCCAUGGAAUCUAGGAGCACCAUUUCGCUGCCAGUGAAGAAAUGAACAAAGAAAAUCUGGGCCAGGCAGGCAUCAAAAGAAAUAGUCUUGCGCUCAACCAGAAAGUCUGUAGUCAUUUUAAGGGUA [A24U A126G] | 1.15 |
| GUUAACGGUCAUAGGCCAUGGAAUCUAGGAGCACCAUUUCGCUGCCAGUGAAGAAAUGAACAAAGAAAAUCUGGGCCAGGCAGGCAUCAAAAGAAAUAGUCUUGCGCUCAACCAGAAAGCCUGUAAUCAUUUUAAGGGUA [A24U U120C] | 0.8 |
| GUUAACGGUCAUAGGCCAUGGAAUCUAGGAGCACCAUUUCGCUGCCAGUGAAGAAAUGAACAAAGAAAAUCUGGGUCAGGCAGGCAUCAAAAGAAAUAGUCUUGCGCUCAACCAGAAAGUCUGUAAUCAUUUUAAGGGUA [A24U C76U] | 0.06 |
| GUUAACGGUCAUAGGCCAUGGAAUCUAGGAGCACCAUUUCGCUGCCAGUGAAGAAGUGAACAAAGAAAAUCUGGGCCAGGCAGGCAUCAAAAGAAAUAGUCUUGCGCUCAACCAGAAAGUCUGUAAUCAUUUUAAGGGUA [A24U A56G] | 2.25 |
| GUUAACGGUCAUAGGCCAUGGAAUCUAGGAGCACCAUUUCGCUGCCAGUGAAGAAAUGAACAAAGAAAAUCUGGGCCAGGCAGGCAUCAAAAGAAAUAGUCUUGCGCUCAACCAGAAAGUCUGUAAUCAUUUUAAGGGUA [A24U] | 1.41 |
| GUUAACGGUCAUAGGCCAUGGAAUCUAGGAGCACCAUUUCGCUGCCAGUGAAGAAAUGAACAAAGAAAAUCUGGGCCAGGCAGGCAUCAAAAGAAAUAGUCUUGCGCUCAACCAGAAAGUCUGUAAUCAUUUAAAGGGUA [A24U U133A] | 1.54 |
| GUUAACGGUCAUAGGCCAUGGAAUCUAGGAGCACCAUUUCGCUGCCAGUGAAGAAAUGAACAAAGAAAAUCUGGGCCAGGCAGGCAUCAAAAGAAAUAGACUUGCGCUCAACCAGAAAGUCUGUAAUCAUUUUAAGGGUA [A24U U100A] | 0.31 |
| GUUAACGGUCAUAGGCCAUGGAAUCUAGGAGCACCAUUUCGCUGCCAGUGAAGAAAUGAACAAAGAAAAUCUGGGCCAGGCAGGCAUCAAAAGAAAUAGUCUUGCGCUCAACCAGAAAGUCUGUAAUCAUAUUAAGGGUA [A24U U131A] | 0.43 |
| GUUAACGGUCAUAGGCCAUGGAAUCUAGGAGCACCAUUUCGCUGCCAGCGAAGAAAUGAACAAAGAAAAUCUGGGCCAGGCAGGCAUCAAAAGAAAUAGUCUUGCGCUCAACCAGAAAGUCUGUAAUCAUUUUAAGGGUA [A24U U49C] | 0.58 |

| Variant | self-cleavage |
| --- | --- |
| GUUAACGGUCAUAGGCCAUGGAAUCUAGGAGCACCAUUUCGCUGCCAGUGAAGAAAUGAACAAAGAAAAUCUGGGCCAGGCAGGCAUCAAAAGAAAGAGUCUUGCGCUCAACCAGAAAGUCUGUAAUCAUUUUAAGGGUA [A24U U97G] | 1.9 |
| GUUAACGGUCAUAGGCCAUGGAAUCUAGGAGCACCAUUUCGCUGCCAGUGAAGAAAUGAACAAAGAAAAUCUGGGCCAGGCAGGCAUCAAAAGAAAUAGUCUUGCGCUCAACCUGAAAGUCUGUAAUCAUUUUAAGGGUA [A24U A114U] | 0.22 |
| GUUAACGGUCAUAGGCCAUGGAAUCUAGGAGCACCAUUUCGCUGCCAGUGAAGAAAUGAACAAAGAAAAUCUGGGCCAGGCAGGCAUCAAAAGAAAUAGUCUUGCGCUCAACCCGAAAGUCUGUAAUCAUUUUAAGGGUA [A24U A114C] | 0.04 |
| GUUAACGGUCAUAGGCCAUGGAAUCUACGAGCACCAUUUCGCUGCCAGUGAAGAAAUGAACAAAGAAAAUCUGGGCCAGGCAGGCAUCAAAAGAAAUAGUCUUGCGCUCAACCAGAAAGUCUGUAAUCAUUUUAAGGGUA [A24U G28C] | 1.02 |
| GUUAACGGUCAUAGGCCAUGGAAUCUAGGAGCACCAUUUCGCUGCCAGUGAAGAAAUGAACAAAGAAAAUCUGGGCCAGGCAGGCAUCAAAAGAAAUAGUCUUGCGCUCAACCAGGAAGUCUGUAAUCAUUUUAAGGGUA [A24U A116G] | 0.78 |
| GUUAACGGUCAUAGGCCAUGGAAUCUAGGAGCACCAUUUCGCUGCCAGUGAAGAAAUGAACAAAGAAAAUCUGGGCCGGGCAGGCAUCAAAAGAAAUAGUCUUGCGCUCAACCAGAAAGUCUGUAAUCAUUUUAAGGGUA [A24U A78G] | 0.38 |
| GUUAACGGUCAUAGGCCAUGGAAGCUAGGAGCACCAUUUCGCUGCCAGUGAAGAAAUGAACAAAGAAAAUCUGGGCCAGGCAGGCAUCAAAAGAAAUAGUCUUGCGCUCAACCAGAAAGUCUGUAAUCAUAUUAAGGGUA [A24G U131A] | 1.22 |
| GUUAACGGUCAUAGGCCAUGGAAUCUAGGAGCACCACUUCGCUGCCAGUGAAGAAAUGAACAAAGAAAAUCUGGGCCAGGCAGGCAUCAAAAGAAAUAGUCUUGCGCUCAACCAGAAAGUCUGUAAUCAUUUUAAGGGUA [A24U U37C] | 1.82 |
| GUUAACGGUCAUAGGCCAUGGAAUCUAGGAGCACCAUUUCGCUGCCAGUGAAGAAAUGAACAAAGAAAAUCUGGGCCAGGCAGGCAUCAAAAGAAAUAGUCUUGCGCUCAACCAGAAAGUCCGUAAUCAUUUUAAGGGUA [A24U U122C] | 1.08 |
| GUUAACGGUCAUAGGCCAUGGAAAAUAGGAGCGCCAUUUCGCUGCCAGUGAAGAAAUGAACAAAGAAAAUCUGGGCCAGGCAGGCAUCAAAAGAAAUAGUCUUGCGCUCAACCAGAAAGUCUGUAAUCAUUUUAAGGGUA [C25A A33G] | 0.9 |
| GUUAACGGUCAUAGGCCAUGGAAUCUAGGAGCACCAUUUCGCUGCCAGUGAAGAAAUGAACAAAGAAAAUCUGGGCCAGGCAGGCAUCAAAAGAAAUAGUCUUGCGCUCAACCAGAGAGUCUGUAAUCAUUUUAAGGGUA [A24U A117G] | 1.85 |
| GUUAACGGUCAUAGGCCAUGGAAUCUAGGAGCACCAUUUCGCUGCCAGUGAAGAAAUGAACAAAGAAAAUCUGGGCCAGGCAGGCAUCAAAAGAAAUAGUCUCGCGCUCAACCAGAAAGUCUGUAAUCAUUUUAAGGGUA [A24U U103C] | 0.25 |
| GUUAACGGUCAUAGGCCAUGGAAUCUAGGAGCACCAUUUCGCUGCCAGUGAAGAAAUGAACGAAGAAAAUCUGGGCCAGGCAGGCAUCAAAAGAAAUAGUCUUGCGCUCAACCAGAAAGUCUGUAAUCAUUUUAAGGGUA [A24U A62G] | 2.33 |
| GUUAACGGUCAUAGGCCAUGGAAGCUAGGAGCACCAUUUCGCUGCCAGUGAAGAAAUGAACAAAGAAAAUCUGGGCCAGGCAGGCAUCAAAAGAAAUAGUCUUGCGCUCAACCAGAAAGUCUGUAAACAUUUUAAGGGUA [A24G U127A] | 1.53 |
| GUUAACGGUCAUAGGCCAUGGAAUCUAGGAGCACCAUUUCGCUGCCAGUGAAGAAAUGAACAAAGAAAAUCUGGGCCAGGCAGGCAUCAAAAGAAAUAGUCUUGCGCACAACCAGAAAGUCUGUAAUCAUUUUAAGGGUA [A24U U108A] | 0.07 |
| GUUAACGGUCAUAGGCCAUGGAAUCUAGGAGCACCAUUUCGCUGCCAGUGAAGAAAUGAACAAAGAAAAUCUGGGCCAGGCAGGCAUCAAAAGAAAUAGUCUUGCGCCCAACCAGAAAGUCUGUAAUCAUUUUAAGGGUA [A24U U108C] | 0.02 |
| GUUAACGGUCAUAGGCCAUGGAAAAUAGGAGCACCAUUUCGCUGCCAGUGAAGAAAUGAACAAAGAAAAUCUGGGCCAGGCAGGCAUCAAAAGAAAUAGUCUUGCGCUCAACCAGAAAGUCUGUAAUCAUUUUAAGGGUA [C25A] | 0.92 |
| GUUAACGGUCAUAGGCCAUGGAAUCUAGGAGCACCAUUUCGCUGCCAGUGAAGAAAUGAACAAAGAAAAUCUGGGCCAGGCAGGCAUCAAAAGAAGUAGUCUUGCGCUCAACCAGAAAGUCUGUAAUCAUUUUAAGGGUA [A24U A96G] | 0.87 |
| GUUAACGGUCAUAGGCCAUGGAAUCUAGGAGCACCAUUUCGCUGCCAGUGAAGAAAUGAACAAAGAAAAUAUGGGCCAGGCAGGCAUCAAAAGAAAUAGUCUUGCGCUCAACCAGAAAGUCUGUAAUCAUUUUAAGGGUA [A24U C71A] | 0.49 |
| GUUAACGGUCAUAGGCCAUGGAAUCUAGGAGCACCAUUUCGCUGCCAGUGAAGAAAUGAACAAAGAAAAUCUGGGCCAGGCAGGCAUCAAAAGAAAUAGUCUUGCGCUCAACCAGAAAGUCUGUAACCAUUUUAAGGGUA [A24U U127C] | 1.36 |
